Experimental data as given in paper PMC4453223.

Molecular target: microtubule (MT) filaments

Chain of DmK-4AA (P17210 other isoform, or with tags, fused parts or gaps): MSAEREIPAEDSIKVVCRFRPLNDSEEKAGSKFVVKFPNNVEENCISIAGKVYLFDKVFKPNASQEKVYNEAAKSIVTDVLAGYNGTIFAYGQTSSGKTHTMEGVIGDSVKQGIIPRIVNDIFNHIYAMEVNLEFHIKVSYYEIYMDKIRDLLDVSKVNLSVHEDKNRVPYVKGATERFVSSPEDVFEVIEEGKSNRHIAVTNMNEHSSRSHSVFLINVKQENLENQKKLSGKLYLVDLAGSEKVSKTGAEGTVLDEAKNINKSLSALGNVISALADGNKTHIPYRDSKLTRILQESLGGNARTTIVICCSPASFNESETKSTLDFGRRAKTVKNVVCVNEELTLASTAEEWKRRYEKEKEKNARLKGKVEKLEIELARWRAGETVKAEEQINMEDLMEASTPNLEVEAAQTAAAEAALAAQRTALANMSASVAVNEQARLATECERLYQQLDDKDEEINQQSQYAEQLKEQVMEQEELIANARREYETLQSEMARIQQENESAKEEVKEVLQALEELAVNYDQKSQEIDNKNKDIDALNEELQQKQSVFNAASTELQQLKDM

half-site mantADP release (stopped flow): share of motors releasing mantADP from both heads upon the addition of MTs: 16%
Substance: DmK-4AA (from UniProt P17210 1-559) (domain or fragment)
